Experimental data: patent publication US6143719A, “Bradykinin analogs as selective thrombin inhibitors” (The Regents of the University of Michigan, priority 1996, dated 2000)
Ends that are not written are not given here.

Assays:
Human platelets in PRP = test: γ-thrombin-induced aggregation of human platelets in PRP in vitro; assay type: cell-based; settings: 20 nM γ-thrombin
Procedure: Platelet aggregation studies on the PRP were conducted on a 4-channel aggregometer (BioData-PAP-4, Bio Data Corp., Hatboro, Pa.). The degree of platelet aggregation was determined by measuring the increase in light transmission through a stirred suspension of PRP maintained at 37° C. Platelet aggregation was induced in the PRP sample by addition of 20 μM ADP and γ-thrombin according to the method of Harfenist et al., Thromb. Haemost. 53, 183 (1985). […] Like human platelets, rabbit platelets display a variable response to γ-thrombin. Each rabbit's platelets were evaluated before BK analog infusion for their threshold response to γ-thrombin. The rabbit platelets used in this experiment were responsive to 10 nM to 40 nM γ-thrombin. Simultaneous γ-thrombin-induced platelet aggregation studies were performed with 10, 20, and 40 nM γ-thrombin and 20 μM ADP.
The protocol for the human platelet study was identical to that for the functional study with white rabbits described above in Section III.A, with the following differences.
Blood samples were obtained from normal human volunteers. Platelet counts were measured with a Coulter counter, Model 2F (Coulter, Hialeah, Fla.,) and adjusted to a platelet count of 200,000 platelets/μl. Each individual's platelets at baseline were measured for their threshold response to γ-thrombin. Typical threshold levels were between 10 nM to 40 nM.

thrombin receptor = target: T1, thrombin receptor (Homo sapiens, UniProt P25116); test: flow cytometry of thrombin receptor epitopes (SPAN12, ATAP138) on α-thrombin activated platelets; assay type: cell-based; settings: peptide 1 nM (so in the source), α-thrombin 1 nM
T1 construct: endogenous in cells; host or cells: washed platelets from fresh blood
T1 sequence (P25116 22-425): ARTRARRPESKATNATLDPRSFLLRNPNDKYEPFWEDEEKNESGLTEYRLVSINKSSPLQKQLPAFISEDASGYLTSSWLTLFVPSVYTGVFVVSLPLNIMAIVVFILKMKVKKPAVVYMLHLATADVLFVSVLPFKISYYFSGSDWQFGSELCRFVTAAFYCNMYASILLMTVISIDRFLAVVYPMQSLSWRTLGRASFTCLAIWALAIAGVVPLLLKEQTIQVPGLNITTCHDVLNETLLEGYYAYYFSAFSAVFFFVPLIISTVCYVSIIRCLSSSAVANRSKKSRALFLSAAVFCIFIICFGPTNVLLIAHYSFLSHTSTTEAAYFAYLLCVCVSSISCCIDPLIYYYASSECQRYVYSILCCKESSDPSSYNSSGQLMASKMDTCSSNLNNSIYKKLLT
Procedure: Flow cytometry studies were performed to determine whether BK analogs prevent α-thrombin from eliminating an epitope on the thrombin receptor which is lost following α-thrombin cleavage- of the receptor. SPAN12 is an antibody to the thrombin receptor on platelets, which is specific for such an epitope. Studies were also performed to determine the effect of BK analogs on an epitope recognized by monoclonal antibody ATAP 138. The antibody is directed to an epitope on the thrombin receptor which is preserved after α-thrombin cleaves the receptor (FIGS. 7A-7D).
Monoclonal antibody SPAN12 was reared to the 12 amino acids, Asn-Ala-Thr-Leu-Asp-Pro-Arg-Ser-Phe-Leu-Leu-Arg (SEQ ID NO:2), that bridge the α-thrombin cleavage site on the thrombin receptor by the methods of Molinot et al., J. Biol. Chem. 270:ln Press, 1995. […]
Mouse IgG and an antibody to the epitope CD62 were used as controls. […] The fluorescence of bound FITC-anti-IgG to platelets was monitored on an Epics-C flow cytometer (Coulter Electronics, Hialeah, Fla.). Light scatter and fluorescence channels were set at logarithmic gain. […] Green fluorescence was observed through a 525 nm band pass filter. The relative fluorescence intensity of at least 15,000 platelets was analyzed in each sample. […]

α-thrombin = α-thrombin (Homo sapiens, UniProt P00734); test: α-thrombin cleavage of thrombin receptor peptide NAT12 (HPLC); assay type: biochemical; settings: peptide 1 mM
Procedure: A further study was performed to determine whether BK analogs prevent α-thrombin from cleaving the thrombin receptor reported by Vu et al., Cell 64, 1057 (1991). A peptide, NAT12 (SEQ ID NO:2), which spans amino acids […] of the α-thrombin cleavage site on the thrombin receptor, was used to determine whether the BK analogs described herein blocked α-thrombin cleavage of the cloned receptor.
The cleavage study was performed according to the method of Molino et al., J. Biol. Chem. 270,11168(1995),inwhichNAT12(SEQ ID NO:2) was dissolved in a solution of 0.01 M NaH2 PO4 and 0.15 M NaCl, pH 7.4. […] Following incubation, each mixture was separated by applying the mixture to a Vyadec C-18 HPLC column in 0.1% trifluoroacetic acid and eluting the mixture with a gradient from 0% to 100% of 80% MeCN and 0.1% trifluoroacetic acid. The size of the separated products were confirmed by mass spectrometry.

Substance: 4-MAP: four-branch multiple antigenic peptide of BK analog SEQ ID NO:20 on a lysine-β-alanine core (RPPG; also: four-branch MAP on lysine-beta-alanine core)
- effect on γ-thrombin-induced aggregation tracing (Human platelets in PRP; 0.05 mM): abolished

Substance: SEQ ID NO:4: unrelated peptide having an amino acid content similar to BK analog SEQ ID NO:14 (FNQTQPERGDNNLTR)
- alteration of SPAN12 epitope by α-thrombin (thrombin receptor): did not prevent

Substance: SEQ ID NO:21: non-BK analog peptide derived from domain 3 of kininogen (LNAENNA) [reference compound]
- protection of NAT12 / thrombin receptor from α-thrombin cleavage (α-thrombin): no protection
- cleavage product peak 2, share of non-treated NAT12 peak area (α-thrombin; 8 nM α-thrombin): 32%
- cleavage product peak 3, share of non-treated NAT12 peak area (α-thrombin; 8 nM α-thrombin): 54%
- reduction of NAT12 peak 1 area after α-thrombin (α-thrombin; 8 nM α-thrombin, one hour 37° C.): 86%
- effect on γ-thrombin-induced aggregation tracing (Human platelets in PRP; peptide 1 mM): unable to alter
